These results are taken from US20240400703A1 (Genmab, published 2024).

The target in assay [1] is T1, human OX40 with mouse CRD4 (human with mouse CRD4, UniProt P43489 29-277).
T1 construct: on ExpiCHO-S cells; also called OX40-CRD4mm; Shuffle 4
T1 chain: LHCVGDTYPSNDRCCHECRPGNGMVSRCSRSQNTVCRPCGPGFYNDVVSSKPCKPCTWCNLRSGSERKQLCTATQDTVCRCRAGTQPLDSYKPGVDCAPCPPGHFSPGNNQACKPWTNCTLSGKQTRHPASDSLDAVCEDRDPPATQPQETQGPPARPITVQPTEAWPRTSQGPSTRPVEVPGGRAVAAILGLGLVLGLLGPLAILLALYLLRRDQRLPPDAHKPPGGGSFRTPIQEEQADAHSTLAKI
Kind of assay: flow cytometry, transfected ExpiCHO-S cells, gMFI (PE). How it is done: (§1) The four shuffle constructs, as well as wild-type human and mouse OX40 were transiently expressed on ExpiCHO-S cells using the ExpiFectamine™ CHO Transfection Kit (ThermoFisher, cat. no. A29131), according to the manufacturer's protocol. […] Next, cells were washed twice in FACS buffer 1, were resuspended in a 30 μL solution of viability marker ToPro-3 (Invitrogen, cat. no. T3605, diluted 1:10,000) in FACS buffer 1 supplemented with 2 mM EDTA, and were analyzed on an iQue Screener Plus (Intellicyt Corporation, USA). Data were analyzed using FlowJo software and visualized using GraphPad Prism.

Assay [2] concerns the target T2, mouse OX40 expressed on ExpiCHO-S cells (mouse, UniProt P47741 20-272).
T2 construct: full-length entry; also called OX40mm; wild-type mouse OX40
T2 sequence: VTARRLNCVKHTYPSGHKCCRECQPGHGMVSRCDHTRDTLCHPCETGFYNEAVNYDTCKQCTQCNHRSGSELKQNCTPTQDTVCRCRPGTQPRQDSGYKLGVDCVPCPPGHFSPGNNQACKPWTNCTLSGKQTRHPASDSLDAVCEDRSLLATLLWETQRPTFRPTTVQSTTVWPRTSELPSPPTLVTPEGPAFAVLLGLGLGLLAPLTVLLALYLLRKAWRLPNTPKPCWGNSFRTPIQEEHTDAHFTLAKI
The description is as above.

Assay [3] concerns the target T3, human OX40 with mouse CRD2 (human with mouse CRD2, UniProt P43489 29-277).
T3 construct: on ExpiCHO-S cells; also called OX40-CRD2mm; Shuffle 2
T3 chain: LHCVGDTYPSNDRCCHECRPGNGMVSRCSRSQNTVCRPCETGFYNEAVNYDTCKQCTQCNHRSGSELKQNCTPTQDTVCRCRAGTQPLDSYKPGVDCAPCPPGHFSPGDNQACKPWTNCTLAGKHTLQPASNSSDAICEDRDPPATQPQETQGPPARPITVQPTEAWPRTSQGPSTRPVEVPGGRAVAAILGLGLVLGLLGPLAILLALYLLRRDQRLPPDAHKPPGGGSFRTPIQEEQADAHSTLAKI
Described as above.

The target in assay [4] is T4, human OX40 with mouse CRD1 (human with mouse CRD1, UniProt P43489 29-277).
T4 construct: on ExpiCHO-S cells; also called OX40-CRD1mm; Shuffle 1
T4 chain: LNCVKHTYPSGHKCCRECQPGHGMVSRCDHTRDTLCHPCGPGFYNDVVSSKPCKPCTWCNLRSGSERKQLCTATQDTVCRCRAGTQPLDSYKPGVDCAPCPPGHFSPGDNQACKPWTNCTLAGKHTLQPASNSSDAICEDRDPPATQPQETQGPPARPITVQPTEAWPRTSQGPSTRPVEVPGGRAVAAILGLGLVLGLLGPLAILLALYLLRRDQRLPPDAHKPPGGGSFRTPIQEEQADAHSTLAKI
Kind of assay: flow cytometry, transfected ExpiCHO-S cells, MFI at 5 µg/mL as % of IgG1-CD134-A4453. The procedure: as §1

The target of assay [5] is T5, human OX40 with mouse CRD3 (human with mouse CRD3, UniProt P43489 29-277).
T5 construct: on ExpiCHO-S cells; also called OX40-CRD3mm; Shuffle 3
T5 chain: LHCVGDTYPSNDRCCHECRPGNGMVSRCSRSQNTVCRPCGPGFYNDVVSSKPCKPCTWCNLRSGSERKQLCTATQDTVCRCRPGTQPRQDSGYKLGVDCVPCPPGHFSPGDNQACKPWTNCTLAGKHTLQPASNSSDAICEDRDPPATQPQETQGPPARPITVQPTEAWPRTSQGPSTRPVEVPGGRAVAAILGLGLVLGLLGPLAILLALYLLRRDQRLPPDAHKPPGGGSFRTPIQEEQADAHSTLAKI
Described as above. How it is done: as §1

Assay [6] has as its target T6, human OX40 expressed on cells (human, UniProt P43489 29-277).
T6 construct: also called CD134; TNFRSF4
T6 sequence: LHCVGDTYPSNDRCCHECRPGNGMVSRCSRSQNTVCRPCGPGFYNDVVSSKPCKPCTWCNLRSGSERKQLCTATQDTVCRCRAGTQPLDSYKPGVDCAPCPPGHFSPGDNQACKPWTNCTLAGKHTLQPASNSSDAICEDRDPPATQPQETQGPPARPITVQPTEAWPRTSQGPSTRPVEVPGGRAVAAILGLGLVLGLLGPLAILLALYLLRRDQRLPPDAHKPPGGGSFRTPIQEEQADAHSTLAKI
Kind of assay: flow cytometry, OX40-transfected HEK293F cells, gMFI (PE). How it is done:
(§2) Transfected cells were seeded in 96-well plates (30,000 cells/well; ThermoFisher, cat. no. 163320) for sequential incubations, with washing steps in between using fluorescence-activated cell sorting (FACS) buffer 1 (phosphate buffered saline [PBS; Lonza, cat. no. BE17-517Q] supplemented with 0.1% bovine serum albumin [BSA; Roche, cat. no. 10735086001] and 0.02% sodium azide [NaN₃; Bio-World, cat. no. 41920044-3]) supplemented with 2 mM ethylenediaminetetraacetic acid (EDTA; Sigma-Aldrich, cat. no. 03690). […] Cells were then washed using EDTA-supplemented FACS buffer 1, resuspended in a 30 μL solution of viability marker ToPro-3 (Invitrogen, cat. no. T3605, diluted 1:10,000) in EDTA-supplemented FACS buffer 1, and subsequently analyzed on an iQue® 3 flow cytometer (Satorius). Data were analyzed using FlowJo software and were visualized using GraphPad Prism.

The target in assay [7] is T7, cynomolgus monkey OX40 expressed on HEK293F cells (cynomolgus monkey (Macaca fascicularis), UniProt P43489 29-277 (human entry)).
T7 construct: full-length entry
T7 chain: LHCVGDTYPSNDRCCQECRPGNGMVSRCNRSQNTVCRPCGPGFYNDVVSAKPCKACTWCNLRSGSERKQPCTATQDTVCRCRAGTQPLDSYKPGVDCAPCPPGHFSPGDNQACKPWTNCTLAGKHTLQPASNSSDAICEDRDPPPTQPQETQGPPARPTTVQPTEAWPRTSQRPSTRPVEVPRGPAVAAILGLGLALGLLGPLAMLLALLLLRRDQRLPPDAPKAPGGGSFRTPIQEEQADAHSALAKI
The description is as above. The procedure:
as §2

Assay [8] has as its target T3, human OX40 with mouse CRD2. The experiment in a line: flow cytometry, transfected ExpiCHO-S cells, MFI at 5 µg/mL as % of IgG1-CD134-A4453. How it is done:
as §1

B1: IgG1-CD134-007-RR (antibody)
heavy: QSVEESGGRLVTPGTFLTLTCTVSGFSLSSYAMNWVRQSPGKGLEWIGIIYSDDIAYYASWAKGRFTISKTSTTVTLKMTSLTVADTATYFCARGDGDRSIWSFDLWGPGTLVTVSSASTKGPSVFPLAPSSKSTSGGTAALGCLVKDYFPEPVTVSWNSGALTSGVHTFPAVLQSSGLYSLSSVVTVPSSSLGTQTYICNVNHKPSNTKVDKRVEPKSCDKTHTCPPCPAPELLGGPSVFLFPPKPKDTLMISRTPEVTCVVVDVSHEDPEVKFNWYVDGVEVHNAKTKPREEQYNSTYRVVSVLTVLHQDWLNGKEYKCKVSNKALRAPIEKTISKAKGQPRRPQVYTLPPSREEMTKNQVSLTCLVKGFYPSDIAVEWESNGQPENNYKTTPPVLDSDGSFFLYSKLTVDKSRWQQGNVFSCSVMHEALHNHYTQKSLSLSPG
light: AQVLTQTPSPVSAAVGGTVTISCQSSESVWNNNWLAWYQQKPGQPPNLLIYEASTLASGVSSRFKGSGSGTQFTLTVSEVQSDDAATYYCQGGYYDSSPIWTFGGGTEVVVKRTVAAPSVFIFPPSDEQLKSGTASVVCLLNNFYPREAKVQWKVDNALQSGNSQESVTEQDSKDSTYSLSSTLTLSKADYEKHKVYACEVTHQGLSSPVTKSFNRGEC
notes: non-humanized 007 variable regions; also called IgG1-CD134-007-P329R-E345R
Take B1: the binding result in assay [1] is listed as “binds”; in assay [2] it was “no binding (tested: 50 µg/mL)”; in assay [3], “no binding (tested: 50 µg/mL)”; in assay [4], “binds”; in assay [5], “binds”. Also, the half-maximal effective concentration (EC50 (read off the curve)) was about 0.05 µg/mL in assay [6] and about 0.04 µg/mL in assay [7].

B2: IgG1-CD134-012-RR-K409R (antibody)
heavy: QSLEESGGRLVTPGTPLTLICTVSGIDLSSGAMGWVRQAPGKGLEYIGYIYTGSGTTSYASWVNGRFTISMTSTTVDLKITSPTTEDTATYFCARDAASSYWGHFTLWGQGTLVTVSSASTKGPSVFPLAPSSKSTSGGTAALGCLVKDYFPEPVTVSWNSGALTSGVHTFPAVLQSSGLYSLSSVVTVPSSSLGTQTYICNVNHKPSNTKVDKRVEPKSCDKTHTCPPCPAPELLGGPSVFLFPPKPKDTLMISRTPEVTCVVVDVSHEDPEVKFNWYVDGVEVHNAKTKPREEQYNSTYRVVSVLTVLHQDWLNGKEYKCKVSNKALRAPIEKTISKAKGQPRRPQVYTLPPSREEMTKNQVSLTCLVKGFYPSDIAVEWESNGQPENNYKTTPPVLDSDGSFFLYSRLTVDKSRWQQGNVFSCSVMHEALHNHYTQKSLSLSPG
light: DIVMTQTPASVEAAVGGTVTIKCQASENIYSSLAWYQQKPGQPPKLLIYRTSTLASGVPSRFKGSGSGTQFTLTISDLESDDAATYYCQSYYHNSGGGYDYGFGGGTEVVAKRTVAAPSVFIFPPSDEQLKSGTASVVCLLNNFYPREAKVQWKVDNALQSGNSQESVTEQDSKDSTYSLSSTLTLSKADYEKHKVYACEVTHQGLSSPVTKSFNRGEC
notes: also called IgG1-CD134-012-P329R-E345R-K409R
In the case of B2, the binding result was “binds” in assay [1], “no binding (tested: 50 µg/mL)” in assay [2], “binds” in assay [8] and “binds” in assay [5]. Moreover, the “EC50 (read off the curve)” value in assay [6] is about 0.05 µg/mL; in assay [7], about 0.06 µg/mL.
